Source: US20030186281A1, “Modified tetracycline repressor protein compositions and methods of use” (priority 2001, published 2003)

B1: TetRrevAtc4-9: revTetR(BD) L52M A56P V57L E58V L60L H188Y (protein)
chain: MSRLDKSKVINSALELLNEVGIEGLTTRKLAQKLGVEQPTLYWHVKNKRALMDAMPLVILARHHDYSLPAAGESWQSFLRNNAMSFRRALLRYRDGAKVHLGTRPDEKQYDTVETQLRFMTENGFSLRDGLYAISAVSHFTLGAVLEQQEHTAALTDRPAAPDENLPPLLREALQIMDSDDGEQAFLYGLESLIRGFEVQLTALLQIV
modifications: Modified tetracycline repressor
notes: revTetR(BD) L52M A56P V57L E58V L60L H188Y
B2: TetRrev04-1: revTetR(BD) G96E K98T (protein)
chain: MSRLDKSKVINSALELLNEVGIEGLTTRKLAQKLGVEQPTLYWHVKNKRALLDALAVEILARHHDYSLPAAGESWQSFLRNNAMSFRRALLRYRDEATVHLGTRPDEKQYDTVETQLRFMTENGFSLRDGLYAISAVSHFTLGAVLEQQEHTAALTDRPAAPDENLPPLLREALQIMDSDDGEQAFLHGLESLIRGFEVQLTALLQIV
modifications: Modified tetracycline repressor
notes: revTetR(BD) G96E K98T
B3: TetRrev6-13: revTetR(BD) G96R L101I (protein)
chain: MSRLDKSKVINSALELLNEVGIEGLTTRKLAQKLGVEQPTLYWHVKNKRALLDALAVEILARHHDYSLPAAGESWQSFLRNNAMSFRRALLRYRDRAKVHIGTRPDEKQYDTVETQLRFMTENGFSLRDGLYAISAVSHFTLGAVLEQQEHTAALTDRPAAPDENLPPLLREALQIMDSDDGEQAFLHGLESLIRGFEVQLTALLQIV
modifications: Modified tetracycline repressor
notes: revTetR(BD) G96R L101I
B4: TetRrev6-2: revTetR(BD) D95G G96R H100L (protein)
chain: MSRLDKSKVINSALELLNEVGIEGLTTRKLAQKLGVEQPTLYWHVKNKRALLDALAVEILARHHDYSLPAAGESWQSFLRNNAMSFRRALLRYRGRAKVLLGTRPDEKQYDTVETQLRFMTENGFSLRDGLYAISAVSHFTLGAVLEQQEHTAALTDRPAAPDENLPPLLREALQIMDSDDGEQAFLHGLESLIRGFEVQLTALLQIV
modifications: Modified tetracycline repressor
notes: revTetR(BD) D95G G96R H100L
B5: TetRrev04-4: revTetR(BD) G96E V113A (protein)
chain: MSRLDKSKVINSALELLNEVGIEGLTTRKLAQKLGVEQPTLYWHVKNKRALLDALAVEILARHHDYSLPAAGESWQSFLRNNAMSFRRALLRYRDEAKVHLGTRPDEKQYDTAETQLRFMTENGFSLRDGLYAISAVSHFTLGAVLEQQEHTAALTDRPAAPDENLPPLLREALQIMDSDDGEQAFLHGLESLIRGFEVQLTALLQIV
modifications: Modified tetracycline repressor
notes: revTetR(BD) G96E V113A
B6: TetRrev6-3: revTetR(BD) V99G H100P (protein)
chain: MSRLDKSKVINSALELLNEVGIEGLTTRKLAQKLGVEQPTLYWHVKNKRALLDALAVEILARHHDYSLPAAGESWQSFLRNNAMSFRRALLRYRDGAKGPLGTRPDEKQYDTVETQLRFMTENGFSLRDGLYAISAVSHFTLGAVLEQQEHTAALTDRPAAPDENLPPLLREALQIMDSDDGEQAFLHGLESLIRGFEVQLTALLQIV
modifications: Modified tetracycline repressor
notes: revTetR(BD) V99G H100P
B7: TetRrev6-27: revTetR(BD) A71T G96E (protein)
chain: MSRLDKSKVINSALELLNEVGIEGLTTRKLAQKLGVEQPTLYWHVKNKRALLDALAVEILARHHDYSLPATGESWQSFLRNNAMSFRRALLRYRDEAKVHLGTRPDEKQYDTVETQLRFMTENGFSLRDGLYAISAVSHFTLGAVLEQQEHTAALTDRPAAPDENLPPLLREALQIMDSDDGEQAFLHGLESLIRGFEVQLTALLQIV
modifications: Modified tetracycline repressor
notes: revTetR(BD) A71T G96E
B8: TetRrev6-23: revTetR(BD) D95E A97E (protein)
chain: MSRLDKSKVINSALELLNEVGIEGLTTRKLAQKLGVEQPTLYWHVKNKRALLDALAVEILARHHDYSLPAAGESWQSFLRNNAMSFRRALLRYREGEKVHLGTRPDEKQYDTVETQLRFMTENGFSLRDGLYAISAVSHFTLGAVLEQQEHTAALTDRPAAPDENLPPLLREALQIMDSDDGEQAFLHGLESLIRGFEVQLTALLQIV
modifications: Modified tetracycline repressor
notes: revTetR(BD) D95E A97E
B9: TetRrev6-32: revTetR(BD) L79V A97T K98R V99G (protein)
chain: MSRLDKSKVINSALELLNEVGIEGLTTRKLAQKLGVEQPTLYWHVKNKRALLDALAVEILARHHDYSLPAAGESWQSFVRNNAMSFRRALLRYRDGTRGHLGTRPDEKQYDTVETQLRFMTENGFSLRDGLYAISAVSHFTLGAVLEQQEHTAALTDRPAAPDENLPPLLREALQIMDSDDGEQAFLHGLESLIRGFEVQLTALLQIV
modifications: Modified tetracycline repressor
notes: revTetR(BD) L79V A97T K98R V99G
B10: TetRrev6-26: revTetR(BD) Y93F G96W A97E H100N (protein)
chain: MSRLDKSKVINSALELLNEVGIEGLTTRKLAQKLGVEQPTLYWHVKNKRALLDALAVEILARHHDYSLPAAGESWQSFLRNNAMSFRRALLRFRDWEKVNLGTRPDEKQYDTVETQLRFMTENGFSLRDGLYAISAVSHFTLGAVLEQQEHTAALTDRPAAPDENLPPLLREALQIMDSDDGEQAFLHGLESLIRGFEVQLTALLQIV
modifications: Modified tetracycline repressor
notes: revTetR(BD) Y93F G96W A97E H100N
B11: TetRrev6-31: revTetR(BD) G96Q G102S (protein)
chain: MSRLDKSKVINSALELLNEVGIEGLTTRKLAQKLGVEQPTLYWHVKNKRALLDALAVEILARHHDYSLPAAGESWQSFLRNNAMSFRRALLRYRDQAKVHLSTRPDEKQYDTVETQLRFMTENGFSLRDGLYAISAVSHFTLGAVLEQQEHTAALTDRPAAPDENLPPLLREALQIMDSDDGEQAFLHGLESLIRGFEVQLTALLQIV
modifications: Modified tetracycline repressor
notes: revTetR(BD) G96Q G102S
B12: TetRrev6-25: revTetR(BD) Y93S D95E G102A (protein)
chain: MSRLDKSKVINSALELLNEVGIEGLTTRKLAQKLGVEQPTLYWHVKNKRALLDALAVEILARHHDYSLPAAGESWQSFLRNNAMSFRRALLRSREGAKVHLATRPDEKQYDTVETQLRFMTENGFSLRDGLYAISAVSHFTLGAVLEQQEHTAALTDRPAAPDENLPPLLREALQIMDSDDGEQAFLHGLESLIRGFEVQLTALLQIV
modifications: Modified tetracycline repressor
notes: revTetR(BD) Y93S D95E G102A
B13: TetRrev6-17: revTetR(BD) R94G G96W (protein)
chain: MSRLDKSKVINSALELLNEVGIEGLTTRKLAQKLGVEQPTLYWHVKNKRALLDALAVEILARHHDYSLPAAGESWQSFLRNNAMSFRRALLRYGDWAKVHLGTRPDEKQYDTVETQLRFMTENGFSLRDGLYAISAVSHFTLGAVLEQQEHTAALTDRPAAPDENLPPLLREALQIMDSDDGEQAFLHGLESLIRGFEVQLTALLQIV
modifications: Modified tetracycline repressor
notes: revTetR(BD) R94G G96W
B14: TetRrevAtc4-9b: revTetR(BD) A56P V57L E58V L60L (protein)
chain: MSRLDKSKVINSALELLNEVGIEGLTTRKLAQKLGVEQPTLYWHVKNKRALLDALPLVILARHHDYSLPAAGESWQSFLRNNAMSFRRALLRYRDGAKVHLGTRPDEKQYDTVETQLRFMTENGFSLRDGLYAISAVSHFTLGAVLEQQEHTAALTDRPAAPDENLPPLLREALQIMDSDDGEQAFLHGLESLIRGFEVQLTALLQIV
modifications: Modified tetracycline repressor
notes: revTetR(BD) A56P V57L E58V L60L
B15: TetRrevDox4-1: revTetR(BD) D53E A54S A61P (protein)
chain: MSRLDKSKVINSALELLNEVGIEGLTTRKLAQKLGVEQPTLYWHVKNKRALLESLAVEILPRHHDYSLPAAGESWQSFLRNNAMSFRRALLRYRDGAKVHLGTRPDEKQYDTVETQLRFMTENGFSLRDGLYAISAVSHFTLGAVLEQQEHTAALTDRPAAPDENLPPLLREALQIMDSDDGEQAFLHGLESLIRGFEVQLTALLQIV
modifications: Modified tetracycline repressor
notes: revTetR(BD) D53E A54S A61P
B16: TetRrevDox4-2: revTetR(BD) D53E A54S I59M A61P (protein)
chain: MSRLDKSKVINSALELLNEVGIEGLTTRKLAQKLGVEQPTLYWHVKNKRALLESLAVEMLPRHHDYSLPAAGESWQSFLRNNAMSFRRALLRYRDGAKVHLGTRPDEKQYDTVETQLRFMTENGFSLRDGLYAISAVSHFTLGAVLEQQEHTAALTDRPAAPDENLPPLLREALQIMDSDDGEQAFLHGLESLIRGFEVQLTALLQIV
modifications: Modified tetracycline repressor
notes: revTetR(BD) D53E A54S I59M A61P

System: tet operator sequence
Experiment: β-galactosidase activity of a tetracycline-regulated promoter in transformed E. coli with revTetR, in the presence and absence of anhydrotetracycline (atc)
Assay type: cell-based, Escherichia coli
Conditions: for β-Galactosidase Activity, Cultured Without ATC: RevTetR isolate cultured in the absence of anhydrotetracycline (ATC); for β-Galactosidase Activity, Cultured With ATC: RevTetR isolate cultured in the presence of anhydrotetracycline (ATC)
Outline: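 TetR(BD) chimera mutants (TetR(B) residues 1–50, TetR(D) 51–208) expressed in E. coli regulating a tet operator-controlled lacZ. β-Galactosidase measured in Miller units at 28 °C and 37 °C with and without anhydrotetracycline; reported as percent of maximal expression without Tet repressor.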

Molecule | β-Galactosidase Activity, Cultured Without ATC | β-Galactosidase Activity, Cultured With ATC
B1 | 97.1039 | 1.8695
B2 | 102.092 | 44.145
B3 | 15.7835 | 2.5043
B4 | 95.487 | 18.3
B5 | 99.655 | 19.878
B6 | 23.0695 | 1.3657
B7 | 108.105 | 44.43
B8 | 101 | 49
B9 | 79.3731 | 3.789
B10 | 53.6535 | 6.9688
B11 | 55.658 | 35.26
B12 | 42.8584 | 4.136
B13 | 56.5081 | 12.5
B14 | 107.982 | 1.0594
B15 | 36.03 | 5.627
B16 | 58.776 | 9.547
